Data: article PMC10132618

Key:
[1] = molecular target: T1, GST-Fob1 (prep also contains free Fob1) (Saccharomyces cerevisiae) (UniProt O13329); assay: EMSA; settings: 10 mM Tris pH 7.5, 1 mM EDTA, 0.1 M KCl, 0.1 mM DTT, 5% glycerol, 20 ul, 30 C 30 min; 6% PAGE in 0.5X TBE
T1 sequence: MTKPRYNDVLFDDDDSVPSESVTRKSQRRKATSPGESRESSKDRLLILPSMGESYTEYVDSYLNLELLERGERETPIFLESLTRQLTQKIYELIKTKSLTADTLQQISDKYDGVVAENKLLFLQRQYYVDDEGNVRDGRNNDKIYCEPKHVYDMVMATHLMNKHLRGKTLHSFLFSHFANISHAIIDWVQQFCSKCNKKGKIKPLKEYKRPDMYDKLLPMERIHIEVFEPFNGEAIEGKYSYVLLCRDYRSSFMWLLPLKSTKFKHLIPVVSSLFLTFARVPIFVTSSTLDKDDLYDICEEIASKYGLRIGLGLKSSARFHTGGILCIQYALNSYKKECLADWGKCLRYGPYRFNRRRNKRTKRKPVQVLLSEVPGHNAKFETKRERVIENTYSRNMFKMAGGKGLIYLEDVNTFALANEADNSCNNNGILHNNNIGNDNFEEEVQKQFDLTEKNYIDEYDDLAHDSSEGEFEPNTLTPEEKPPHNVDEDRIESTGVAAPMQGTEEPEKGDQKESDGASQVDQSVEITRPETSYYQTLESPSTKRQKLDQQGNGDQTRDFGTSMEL

[2] = molecular target: T1, GST-Fob1 (prep also contains free Fob1) (Saccharomyces cerevisiae); assay: competition; settings: 10 mM Tris pH 7.5, 1 mM EDTA, 0.1 M KCl, 0.1 mM DTT, 5% glycerol, 20 ul, 30 C 30 min; 6% PAGE in 0.5X TBE

“TGCTAGTGTTTGCAAGATGGTGCTTTTTTTTCTTTAGATTGCCACGTTTCTGCTCCT (double strand) [RDT1 promoter probe (57 bp)]” was tested. Which binding [1] did it give?
Its binding is “binds”.

And the binding [2]?
The binding was “binds”.
